Test results from IntAct's records for PubMed 25416956.

B1: Chorion-specific transcription factor GCMb (Homo sapiens), O75603 (parent)
chain: MPAAAVQEAVGVCSYGMQLSWDINDPQMPQELALFDQFREWPDGYVRFIYSSDEKKAQRHLSGWAMRNTNNHNGHILKKSCLGVVVCTQACTLPDGSRLQLRPAICDKARLKQQKKACPNCHSALELIPCRGHSGYPVTNFWRLDGNAIFFQAKGVHDHPRPESKSETEARRSAIKRQMASFYQPQKKRIRESEAEENQDSSGHFSNIPPLENPEDFDIVTETSFPIPGQPCPSFPKSDVYKATCDLATFQGDKMPPFQKYSSPRIYLPRPPCSYELANPGYTNSSPYPTLYKDSTSIPNDTDWVHLNTLQCNVNSYSSYERSFDFTNKQHGWKPALGKPSLVERTNHGQFQAMATRPYYNPELPCRYLTTPPPGAPALQTVITTTTKVSYQAYQPPAMKYSDSVREVKSLSSCNYAPEDTGMSVYPEPWGPPVTVTRAASPSGPPPMKIAGDCRAIRPTVAIPHEPVSSRTDEAETWDVCLSGLGSAVSYSDRVGPFFTYNNEDF
partner: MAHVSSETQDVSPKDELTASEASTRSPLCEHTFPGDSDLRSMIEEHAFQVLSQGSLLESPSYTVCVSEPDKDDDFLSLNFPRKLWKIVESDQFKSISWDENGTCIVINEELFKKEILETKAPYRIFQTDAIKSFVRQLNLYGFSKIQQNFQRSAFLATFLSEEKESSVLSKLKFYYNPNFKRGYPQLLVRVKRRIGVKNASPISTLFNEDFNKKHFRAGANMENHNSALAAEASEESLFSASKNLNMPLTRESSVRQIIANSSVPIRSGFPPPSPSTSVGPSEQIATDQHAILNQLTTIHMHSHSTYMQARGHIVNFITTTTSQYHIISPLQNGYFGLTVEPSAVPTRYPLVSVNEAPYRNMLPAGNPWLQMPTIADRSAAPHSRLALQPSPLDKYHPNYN
B2: EF-hand domain-containing protein 1 (Homo sapiens), Q5JVL4 (parent)
chain: MVSNPVHGLPFLPGTSFKDSTKTAFHRSQTLSYRNGYAIVRRPTVGIGGDRLQFNQLSQAELDELASKAPVLTYGQPKQAPPADFIPAHVAFDKKVLKFDAYFQEDVPMSTEEQYRIRQVNIYYYLEDDSMSVIEPVVENSGILQGKLIKRQRLAKNDRGDHYHWKDLNRGINITIYGKTFRVVDCDQFTQVFLESQGIELNPPEKMALDPYTELRKQPLRKYVTPSDFDQLKQFLTFDKQVLRFYAIWDDTDSMYGECRTYIIHYYLMDDTVEIREVHERNDGRDPFPLLMNRQRVPKVLVENAKNFPQCVLEISDQEVLEWYTAKDFIVGKSLTILGRTFFIYDCDPFTRRYYKEKFGITDLPRIDVSKREPPPVKQELPPYNGFGLVEDSAQNCFALIPKAPKKDVIKMLVNDNKVLRYLAVLESPIPEDKDRRFVFSYFLATDMISIFEPPVRNSGIIGGKYLGRTKVVKPYSTVDNPVYYGPSDFFIGAVIEVFGHRFIILDTDEYVLKYMESNAAQYSPEALASIQNHVRKREAPAPEAESKQTEKDPGVQELEALIDTIQKQLKDHSCKDNIREAFQIYDKEASGYVDRDMFFKICESLNVPVDDSLVKELIRMCSHGEGKINYYNFVRAFSN
partner: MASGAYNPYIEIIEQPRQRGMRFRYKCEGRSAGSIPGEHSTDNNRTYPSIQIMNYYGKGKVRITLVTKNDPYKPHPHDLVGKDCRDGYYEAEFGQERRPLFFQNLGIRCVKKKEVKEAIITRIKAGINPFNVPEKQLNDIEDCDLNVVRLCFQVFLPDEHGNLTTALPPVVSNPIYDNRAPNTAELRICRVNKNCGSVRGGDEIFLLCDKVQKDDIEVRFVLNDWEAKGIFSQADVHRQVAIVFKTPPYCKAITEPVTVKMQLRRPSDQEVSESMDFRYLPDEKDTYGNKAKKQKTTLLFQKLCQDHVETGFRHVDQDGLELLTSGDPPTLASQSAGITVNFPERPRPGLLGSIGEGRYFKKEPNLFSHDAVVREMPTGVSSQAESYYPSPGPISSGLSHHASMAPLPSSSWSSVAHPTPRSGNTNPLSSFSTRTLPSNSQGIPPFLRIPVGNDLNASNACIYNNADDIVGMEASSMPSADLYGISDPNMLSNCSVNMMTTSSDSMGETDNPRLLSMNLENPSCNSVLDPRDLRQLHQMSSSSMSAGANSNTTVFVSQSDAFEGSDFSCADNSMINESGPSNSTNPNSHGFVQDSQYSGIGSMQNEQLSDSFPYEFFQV
B3: Plakophilin-2 (Homo sapiens), Q99959 (parent)
chain: MAAPGAPAEYGYIRTVLGQQILGQLDSSSLALPSEAKLKLAGSSGRGGQTVKSLRIQEQVQQTLARKGRSSVGNGNLHRTSSVPEYVYNLHLVENDFVGGRSPVPKTYDMLKAGTTATYEGRWGRGTAQYSSQKSVEERSLRHPLRRLEISPDSSPERAHYTHSDYQYSQRSQAGHTLHHQESRRAALLVPPRYARSEIVGVSRAGTTSRQRHFDTYHRQYQHGSVSDTVFDSIPANPALLTYPRPGTSRSMGNLLEKENYLTAGLTVGQVRPLVPLQPVTQNRASRSSWHQSSFHSTRTLREAGPSVAVDSSGRRAHLTVGQAAAGGSGNLLTERSTFTDSQLGNADMEMTLERAVSMLEADHMLPSRISAAATFIQHECFQKSEARKRVNQLRGILKLLQLLKVQNEDVQRAVCGALRNLVFEDNDNKLEVAELNGVPRLLQVLKQTRDLETKKQITDHTVNLRSRNGWPGAVAHACNPSTLGGQGGRITRSGVRDQPDQHGLLWNLSSNDKLKNLMITEALLTLTENIIIPFSGWPEGDYPKANGLLDFDIFYNVTGCLRNMSSAGADGRKAMRRCDGLIDSLVHYVRGTIADYQPDDKATENCVCILHNLSYQLEAELPEKYSQNIYIQNRNIQTDNNKSIGCFGSRSRKVKEQYQDVPMPEEKSNPKGVEWLWHSIVIRMYLSLIAKSVRNYTQEASLGALQNLTAGSGPMPTSVAQTVVQKESGLQHTRKMLHVGDPSVKKTAISLLRNLSRNLSLQNEIAKETLPDLVSIIPDTVPSTDLLIETTASACYTLNNIIQNSYQNARDLLNTGGIQKIMAISAGDAYASNKASKAASVLLYSLWAHTELHHAYKKAQFKKTDFVNSRTAKAYHSLKD
partner: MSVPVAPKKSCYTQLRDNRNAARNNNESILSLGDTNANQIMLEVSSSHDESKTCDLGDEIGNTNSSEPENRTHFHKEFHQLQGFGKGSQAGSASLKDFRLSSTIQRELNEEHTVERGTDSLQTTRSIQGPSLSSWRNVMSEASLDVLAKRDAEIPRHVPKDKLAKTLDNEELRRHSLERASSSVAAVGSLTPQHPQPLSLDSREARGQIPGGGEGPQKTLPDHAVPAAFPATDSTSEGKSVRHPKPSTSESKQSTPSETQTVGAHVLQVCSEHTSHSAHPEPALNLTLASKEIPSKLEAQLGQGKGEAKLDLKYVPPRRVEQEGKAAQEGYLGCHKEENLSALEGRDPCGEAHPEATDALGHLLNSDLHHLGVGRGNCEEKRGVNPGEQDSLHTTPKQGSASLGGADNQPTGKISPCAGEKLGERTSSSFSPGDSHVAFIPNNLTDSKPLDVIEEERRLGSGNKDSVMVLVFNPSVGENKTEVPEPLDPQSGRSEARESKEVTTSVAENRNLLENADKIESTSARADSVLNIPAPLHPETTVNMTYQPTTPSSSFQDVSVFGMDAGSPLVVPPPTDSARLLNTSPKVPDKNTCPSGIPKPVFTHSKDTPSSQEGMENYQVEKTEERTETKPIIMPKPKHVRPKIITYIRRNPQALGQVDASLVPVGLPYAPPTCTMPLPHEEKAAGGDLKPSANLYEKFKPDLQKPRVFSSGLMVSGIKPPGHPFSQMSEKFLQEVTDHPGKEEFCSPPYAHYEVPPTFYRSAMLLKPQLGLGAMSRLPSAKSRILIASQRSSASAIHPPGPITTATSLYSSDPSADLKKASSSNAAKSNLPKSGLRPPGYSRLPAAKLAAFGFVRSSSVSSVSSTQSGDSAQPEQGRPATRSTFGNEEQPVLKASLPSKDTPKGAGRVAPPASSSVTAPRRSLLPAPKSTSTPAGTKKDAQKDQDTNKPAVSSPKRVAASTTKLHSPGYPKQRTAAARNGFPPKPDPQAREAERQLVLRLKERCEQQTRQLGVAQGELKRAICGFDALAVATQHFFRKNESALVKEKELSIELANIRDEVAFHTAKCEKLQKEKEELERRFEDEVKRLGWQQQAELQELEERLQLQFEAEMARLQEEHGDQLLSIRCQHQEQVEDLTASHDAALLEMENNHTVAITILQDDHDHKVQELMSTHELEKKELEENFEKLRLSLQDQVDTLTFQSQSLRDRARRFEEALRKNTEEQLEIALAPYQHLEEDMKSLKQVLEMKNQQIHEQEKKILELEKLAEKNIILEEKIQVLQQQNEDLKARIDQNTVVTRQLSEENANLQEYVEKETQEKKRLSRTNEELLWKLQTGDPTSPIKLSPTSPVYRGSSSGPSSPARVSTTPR
B4: Plakophilin-2 (Homo sapiens), Q99959 (parent)
chain: B3 chain
partner: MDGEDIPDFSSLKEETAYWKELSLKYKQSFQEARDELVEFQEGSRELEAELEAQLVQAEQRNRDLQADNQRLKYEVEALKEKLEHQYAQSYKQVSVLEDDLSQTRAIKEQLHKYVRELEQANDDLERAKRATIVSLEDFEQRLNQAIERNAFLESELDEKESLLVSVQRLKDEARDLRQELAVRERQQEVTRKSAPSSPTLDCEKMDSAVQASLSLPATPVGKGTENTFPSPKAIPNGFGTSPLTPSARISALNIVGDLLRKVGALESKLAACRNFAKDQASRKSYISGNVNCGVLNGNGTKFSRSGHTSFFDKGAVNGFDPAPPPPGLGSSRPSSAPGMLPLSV

Variants of: B1
Details: with hsfy1_human HSFY1, Q96LI6

Variant	effect of a mutation on the interaction
G63S	disrupting interaction

Variants of: B2
Details: with rel_human REL

Variant	effect of a mutation on the interaction
P77T	disrupting interaction

Variants of: B2
Details: with rel_human REL
Remark: another data set of the same source

Variant	effect of a mutation on the interaction
R221H	disrupting interaction

Variants of: B2
Details: with rel_human REL
Remark: another data set of the same source

Variant	effect of a mutation on the interaction
T508R	disrupting interaction

Variants of: B2
Details: with rel_human REL
Remark: another data set of the same source

Variant	effect of a mutation on the interaction
A394S	disrupting interaction

Variants of: B3
Details: with mtus2_human MTUS2, Q5JR59

Variant	effect of a mutation on the interaction
S140F	disrupting interaction

Variants of: B3
Details: with mtus2_human MTUS2, Q5JR59
Remark: another data set of the same source

Variant	effect of a mutation on the interaction
S644P	disrupting interaction

Variants of: B4
Details: with ndel1_human NDEL1, Q9GZM8

Variant	effect of a mutation on the interaction
S644P	disrupting interaction

Variants of: B4
Details: with ndel1_human NDEL1, Q9GZM8
Remark: another data set of the same source

Variant	effect of a mutation on the interaction
S140F	disrupting interaction
